According to the supplement of paper PMC9112550, “Optimization of the antimicrobial peptide Bac7 by deep mutational scanning” (BMC Biology, 2022):

Tested on: Escherichia coli TOP10
Assay: shrunken log2 fold change of peptide-encoding DNA abundance (4.5 h post-induction vs induction); higher = less antimicrobial activity (less host growth inhibition)
Details: time post-induction: 4.5 h; library: site-saturation at positions 5, 18, 19, 20
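Further: peptides expressed intracellularly from a pBAD plasmid library in pooled LB shake-flask culture, induced with 0.3% L-arabinose, DNA abundance read by NGS, three biological replicates, DESeq2 with apeglm shrinkage.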

| Sequence | shrunken log2 fold change |
| --- | --- |
| RRIRERPPRLPRPRPRPCMCPRP | -1.03 |
| RRIRTRPPRLPRPRPRPNSHPRP | -0.015 |
| RRIRIRPPRLPRPRPRPPDEPRP | -0.0174 |
| RRIRVRPPRLPRPRPRPWTNPRP | -0.584 |
| RRIRRRPPRLPRPRPRPAVTPRP | -0.111 |
| RRIRARPPRLPRPRPRPKNTPRP | -0.0664 |
| RRIRSRPPRLPRPRPRPDVNPRP | 0.0672 |
| RRIRLRPPRLPRPRPRPCQQPRP | -0.047 |
| RRIRCRPPRLPRPRPRPRSSPRP | -0.138 |
| RRIRYRPPRLPRPRPRPSNVPRP | -1.01 |
| RRIRKRPPRLPRPRPRPCWPPRP | 0.0513 |
| RRIRMRPPRLPRPRPRPEKAPRP | 1.52 |
| RRIRWRPPRLPRPRPRPYQGPRP | -0.0161 |
| RRIRKRPPRLPRPRPRPTCVPRP | 0.241 |
| RRIRSRPPRLPRPRPRPTQMPRP | 0.502 |
| RRIRRRPPRLPRPRPRPNASPRP | -0.0114 |
| RRIRKRPPRLPRPRPRPQMDPRP | 0.618 |
| RRIRLRPPRLPRPRPRPHWIPRP | -0.162 |
| RRIRMRPPRLPRPRPRPAWCPRP | 3.93 |
| RRIRSRPPRLPRPRPRPMNIPRP | -0.196 |
| RRIRLRPPRLPRPRPRPNYFPRP | -0.121 |
| RRIRCRPPRLPRPRPRPKWCPRP | -0.105 |
| RRIRKRPPRLPRPRPRPMQYPRP | -0.0135 |
| RRIRYRPPRLPRPRPRPILRPRP | -0.172 |
| RRIRGRPPRLPRPRPRPLAPPRP | 0.998 |

| Sequence | shrunken log2 fold change |
| --- | --- |
| RRIRVRPPRLPRPRPRPGHTPRP | -0.000319 |
| RRIRYRPPRLPRPRPRPKYFPRP | -0.314 |
| RRIRCRPPRLPRPRPRPWELPRP | 0.268 |
| RRIRERPPRLPRPRPRPSWTPRP | -0.833 |
| RRIRRRPPRLPRPRPRPNYCPRP | -0.25 |
| RRIRFRPPRLPRPRPRPWFFPRP | -0.393 |
| RRIRERPPRLPRPRPRPHFGPRP | -0.0492 |
| RRIRVRPPRLPRPRPRPCDDPRP | -0.0369 |
| RRIRYRPPRLPRPRPRPIQIPRP | -0.409 |
| RRIRVRPPRLPRPRPRPECCPRP | 0.0234 |
| RRIRRRPPRLPRPRPRPPGPPRP | 0.8 |
| RRIRIRPPRLPRPRPRPTCYPRP | -0.266 |
| RRIRERPPRLPRPRPRPEIKPRP | -0.0374 |
| RRIRLRPPRLPRPRPRPNPTPRP | -0.149 |
| RRIRARPPRLPRPRPRPNTPPRP | -0.00444 |
| RRIRPRPPRLPRPRPRPIVEPRP | 0.233 |
| RRIRFRPPRLPRPRPRPGHRPRP | 0.0983 |
| RRIRVRPPRLPRPRPRPKECPRP | -0.0265 |
| RRIRRRPPRLPRPRPRPRLIPRP | 0.874 |
| RRIRYRPPRLPRPRPRPTTMPRP | -0.722 |
| RRIRNRPPRLPRPRPRPAATPRP | 0.285 |
| RRIRLRPPRLPRPRPRPDWMPRP | -0.152 |
| RRIRDRPPRLPRPRPRPDRSPRP | 0.0975 |
| RRIRVRPPRLPRPRPRPLWEPRP | 0.203 |
| RRIRCRPPRLPRPRPRPCDHPRP | 0.0959 |

| Sequence | shrunken log2 fold change |
| --- | --- |
| RRIRFRPPRLPRPRPRPLPPPRP | 0.828 |
| RRIRQRPPRLPRPRPRPVNSPRP | -0.0167 |
| RRIRPRPPRLPRPRPRPCGYPRP | -0.136 |
| RRIRLRPPRLPRPRPRPKMGPRP | 0.0108 |
| RRIRLRPPRLPRPRPRPNNDPRP | -0.763 |
| RRIRWRPPRLPRPRPRPLIWPRP | 0.515 |
| RRIRDRPPRLPRPRPRPQARPRP | 1.05 |
| RRIRCRPPRLPRPRPRPGWKPRP | 0.173 |
| RRIRWRPPRLPRPRPRPARCPRP | 0.209 |
| RRIRIRPPRLPRPRPRPTLIPRP | -0.101 |
| RRIRFRPPRLPRPRPRPLRVPRP | -0.108 |
| RRIRNRPPRLPRPRPRPPENPRP | 0.181 |
| RRIRWRPPRLPRPRPRPYDEPRP | -0.114 |
| RRIRFRPPRLPRPRPRPGFCPRP | -0.179 |
| RRIRDRPPRLPRPRPRPLIIPRP | -0.0486 |
| RRIRMRPPRLPRPRPRPGHGPRP | 0.32 |
| RRIRERPPRLPRPRPRPNTHPRP | -0.704 |
| RRIRDRPPRLPRPRPRPNHGPRP | 1.15 |
| RRIRMRPPRLPRPRPRPLIVPRP | 1.71 |
| RRIRDRPPRLPRPRPRPCTMPRP | -0.0909 |
| RRIRGRPPRLPRPRPRPPCNPRP | 0.489 |
| RRIRARPPRLPRPRPRPAAEPRP | 1.6 |
| RRIRRRPPRLPRPRPRPHCKPRP | 0.298 |
| RRIRNRPPRLPRPRPRPMWPPRP | -0.00481 |
| RRIRKRPPRLPRPRPRPDEQPRP | 2.64 |

| Sequence | shrunken log2 fold change |
| --- | --- |
| RRIRNRPPRLPRPRPRPWGDPRP | -0.0233 |
| RRIRYRPPRLPRPRPRPFNDPRP | -0.102 |
| RRIRERPPRLPRPRPRPRNCPRP | -0.102 |
| RRIRARPPRLPRPRPRPLCIPRP | -0.143 |
| RRIRQRPPRLPRPRPRPNTLPRP | 0.013 |
| RRIRHRPPRLPRPRPRPNSGPRP | -0.194 |
| RRIRFRPPRLPRPRPRPKEEPRP | 0.0372 |
| RRIRMRPPRLPRPRPRPREPPRP | 0.447 |
| RRIRARPPRLPRPRPRPNSRPRP | 0.0429 |
| RRIRWRPPRLPRPRPRPHCIPRP | -0.207 |
| RRIRWRPPRLPRPRPRPFASPRP | 0.177 |
| RRIRFRPPRLPRPRPRPDPCPRP | -0.191 |
| RRIRCRPPRLPRPRPRPGRIPRP | -0.231 |
| RRIRQRPPRLPRPRPRPMIQPRP | 0.0718 |
| RRIRVRPPRLPRPRPRPIYMPRP | -0.438 |
| RRIRVRPPRLPRPRPRPEKFPRP | -0.208 |
| RRIRARPPRLPRPRPRPMEDPRP | -0.0391 |
| RRIRSRPPRLPRPRPRPWQDPRP | -0.136 |
| RRIRIRPPRLPRPRPRPMWRPRP | 0.19 |
| RRIRFRPPRLPRPRPRPLRNPRP | 0.514 |
| RRIRKRPPRLPRPRPRPFLMPRP | 0.043 |
| RRIRFRPPRLPRPRPRPMNPPRP | -0.0531 |
| RRIRPRPPRLPRPRPRPNSEPRP | -0.211 |
| RRIRHRPPRLPRPRPRPEWGPRP | 0.209 |
| RRIRTRPPRLPRPRPRPMMDPRP | -0.141 |

| Sequence | shrunken log2 fold change |
| --- | --- |
| RRIRQRPPRLPRPRPRPMHKPRP | 0.0742 |
| RRIRYRPPRLPRPRPRPNCVPRP | -0.0116 |
| RRIRSRPPRLPRPRPRPKCKPRP | -0.0132 |
| RRIRMRPPRLPRPRPRPFINPRP | -0.278 |
| RRIRNRPPRLPRPRPRPSHPPRP | 0.186 |
| RRIRERPPRLPRPRPRPITGPRP | -0.0908 |
| RRIRFRPPRLPRPRPRPSCKPRP | -0.901 |
| RRIRSRPPRLPRPRPRPWEGPRP | -0.0466 |
| RRIRNRPPRLPRPRPRPRWCPRP | 0.169 |
| RRIRQRPPRLPRPRPRPSSRPRP | -0.14 |
| RRIRKRPPRLPRPRPRPHYGPRP | -0.0816 |
| RRIRCRPPRLPRPRPRPRPIPRP | 0.266 |
| RRIRLRPPRLPRPRPRPDGKPRP | -0.0351 |
| RRIRQRPPRLPRPRPRPMSIPRP | -0.00929 |
| RRIRSRPPRLPRPRPRPMFFPRP | -0.274 |
| RRIRCRPPRLPRPRPRPYLGPRP | -0.213 |
| RRIRTRPPRLPRPRPRPYTWPRP | -0.465 |
| RRIRKRPPRLPRPRPRPPICPRP | 0.684 |
| RRIRGRPPRLPRPRPRPDDCPRP | 0.152 |
| RRIRFRPPRLPRPRPRPKKVPRP | 0.102 |
| RRIRKRPPRLPRPRPRPIQDPRP | -0.106 |
| RRIRARPPRLPRPRPRPKTYPRP | -0.214 |
| RRIRWRPPRLPRPRPRPVAYPRP | -0.0891 |
| RRIRFRPPRLPRPRPRPKMWPRP | 0.348 |
| RRIRLRPPRLPRPRPRPQFSPRP | -0.907 |
